Reference: patent US20250352589A1, “OXYTOCIN-MIMETIC COMPOSITIONS AND USES THEREOF” (INSTITUT NATIONAL DE LA SANTÉ ET DE LA RECHERCHE MÉDICALE, priority 2021, published 2025)

T1: human OT-R (Homo sapiens, UniProt P30559)
T1 construct: expressed in transfected cells; host or cells: HEK cells
T1 sequence (P30559 1-389): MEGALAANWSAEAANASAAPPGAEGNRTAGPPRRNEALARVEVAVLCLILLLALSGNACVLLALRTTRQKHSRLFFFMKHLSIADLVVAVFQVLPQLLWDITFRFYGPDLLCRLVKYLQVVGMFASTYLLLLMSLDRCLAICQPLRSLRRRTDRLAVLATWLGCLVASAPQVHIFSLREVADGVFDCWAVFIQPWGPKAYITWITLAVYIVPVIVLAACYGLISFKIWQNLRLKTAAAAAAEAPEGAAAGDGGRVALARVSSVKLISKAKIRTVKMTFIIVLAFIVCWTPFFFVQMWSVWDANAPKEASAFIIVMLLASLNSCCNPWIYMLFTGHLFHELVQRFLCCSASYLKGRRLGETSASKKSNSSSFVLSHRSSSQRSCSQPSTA


Assays:
human OT-R = target: T1, human OT-R; experiment: Activation of OT-R by bacterial peptides: calcium release from HEK cells transfected with human OT-R; assay type: cell-based; conditions: OTR expressing HEK cells
[1] = system: non-transfected HEK cells; experiment: Negative control: activation of non-transfected HEK cells; assay type: cell-based
Protocol: The activation of OT-R by bacterial peptides was analyzed by the measurement of calcium release from HEK cells transfected with human OT-R
As a negative control, no activation of non-transfected HEK cells with OT or bacterial peptides was observed.

anti-oxytocin antibodies = experiment: Proteomic analysis: 2D gel and OT immunodetection (OT IgG) of bacterial proteomes; assay type: binding; conditions: 2D-immunoblotting, spots identified by mass spectrometry
Protocol: In this study, 14 bacteria-extracted proteomes were analyzed: (i) from 5 Bifidobacterium species grown in anaerobe conditions, (ii) from 5 Lactobacillus species grown in anaerobe culture conditions and (iii) from 4 aerotolerant Lactobacillus species grown in aerobe conditions. Each proteome analysis was performed in triplicate and was further separated in 3 fractions i.e. soluble (S), membrane (M), and residual (R) resulting in 9 samples/proteome). Each fraction was initially screened by western blot (WB) for the presence OT-like reactivity to validate it for further 2D-SDS-PAGE analysis. […] Finally, all fractions have been analyzed using 2D gel technique and OT immunodetection. 2D gel electrophoresis allowed to improve visibility of the less abundant proteins in a complex sample. Thereby, all samples were analyzed at least once with this method to scan optimally each proteome in the search for OT mimicry. […] The specificity for OT-like staining was controlled by pre-adsorption of OT-IgG with OT peptide.
All protein spots in silver nitrate staining gels corresponding to OT-like spots in the membrane were excised and analyzed by mass spectrometry

| Molecule | specific activation of OTR (human OT-R) | activation of non-transfected HEK cells [1] | immune cross-reaction with anti-oxytocin antibodies (anti-oxytocin antibodies) |
| --- | --- | --- | --- |
| CC[C@H](C)[C@@H]1NC(=O)[C@H](Cc2ccc(O)cc2)NC(=O)[C@@H](N)CSSC[C@@H](C(=O)N2CCC[C@H]2C(=O)N[C@@H](CC(C)C)C(=O)NCC(N)=O)NC(=O)[C@H](CC(N)=O)NC(=O)[C@H](CCC(N)=O)NC1=O [OT, Oxytocin] | specifically activated OTR | no activation |  |
| Prolable phosphoketolase (protein, listed as Bifidobacterium pseudolongum, Probable phosphoketolase, protein expressed by Bifidobacterium pseudolongum subsp. globosum) MTNPVIGTPWQKLDRPVSEEAIEGMDKYWRVTNYMSIGQIYLRSNPLMKEPFTRDDVKHRLVGHWGTTPGLNFLLAHINRLIADHQQNTVFIMGPGHGGPAGTSQSYVDGTYTEYYPNITKDEAGLQKFFRQFSYPGGIPSHFAPETPGSIHEGGELGYALSHAYGAVMNNPSLFVPCIIGDGEAETGPLATGWQSNKLVNPRTDGIVLPILHLNGYKIANPTILARISDEELHDFFRGMGYHPYEFVAGFDNEDHMSIHRRFAELFETIFDEICDIKAAAQTDDMTRPFYPMLIFRTPKGWTCPKFIDGKKTEGSWRAHQVPLASARDTEEHFEVLKGWLESYKPEELFNADGSIKDDVTAFMPKGDLRIGANPNANGGVIREDLKLPELDQYEVTGVKEYGHGWGQVEAPRSLGAYCRDIIKNNPDSFRIFGPDETASNRLNATYEVTDKQWDNGYLSSLVDEHMAVTGQVTEQLSEHQCEGFLEAYLLTGRHGIWSSYESFVHVIDSMLNQHAKWLEATVREIPWRKPISSVNLLVSSHVWRQDHNGFSHQDPGVTSVLINKTFNNDHVTNIYFATDANMLLAISEKCFKSTNKINAIFAGKQPAPTWITLDEARAELEAGAAEWKWASNAENNDEVQVVLAAAGDVPTQEIMAASDALNKMGIKFKVVNVVDLLKLQSRENNDEALTDEEFTDLFTADKPVLFAYHSYAQDVRGLIYDRPNHDNFNVVGYKEQGSTTTPFDMVRVNDMDRYALQAAALKMIDADKYADKIDELNAFRQKAFQFAVDNGYDIPEFTDWVYPDVKVDETQMLSATAATAGDNE |  |  | immune cross-react with anti-oxytocin antibodies |
| Enolase 1 (protein, listed as Lactobacillus gasseri, enolase1, protein expressed by Lactobacillus gasseri) MLKSVIENVHALEIFDSRGNPTVEVFVTLSNGVVGKAEVPSGASTGENEAVELRDGGSRLGGKGVMNAVNNVNTEINDALKGLDPHDQPNIDATMIALDGTPNKGRLGANAILGVSMATACAAAKDNHQPLYRYLGGTDLEMPQTFHNVINGGEHADNGIDIQEFMITPVAKTSFRDGFEKIVNVYHTLKKVLEDMGYETGLGDEGGFAPNMKNSEEALKALHESIIKAGYKPGEDIAIACDCAASYFYNKEDGKYHLEGKVLTDEELADYYDKLLDEFPELISMEDPYDENDVEGMVKFTESHKDRIQIVLDDFICTNPKLLNKAIHEGAGNASLIKLNQIGTVTETLETIRLSRKNGYNTMISHRSGETGDTFIADFAVAVNGGQLKSGAPARSERVEKYNRLLEIEEELGKGERLAFFPDNVDLD |  |  | immune cross-react with anti-oxytocin antibodies |
| Glutamine-fructose-6-phosphate aminotransferase (protein, listed as Lactobacillus plantarum, Glutamine-fructose-6-phosphate aminotransferase, protein expressed by Lactobacillus plantarum) MCGIVGVTGKDSAVSILLNGLEKLEYRGYDSAGIYVNDQDGHDYLVKEKGRIDDLRKEVGEAVHGSTGIGHTRWATHGEPSVANAHPQVSADGRFYLVHNGVIENFEDLKQTYLSDVTFKSQTDTEVIVQLVDRFVTKEGLSTLAAFRKTLGLLGHSSYGFLLMDKEDPDTLYVAKNKSPLLIGVGEGFNVVCSDSLAMLDQTKDFLELHDGEIVVVKPDEIKITNQAGEPVERKPFHVDIDAAQADKGTYPFYMLKEIDEQPNVMRKLSQVYLNDAGDPIINDDLLTALKAADRLYIVAAGTSYHAGLVGAKLFESLANVPTEVHVSSEFAYNQPLLSAHPFFIFLTQSGETADSREVLLNVNDQHFPSLTITNVPNSTLSREATYTLLLHAGPEIAVASTKAYTAQIALQAILAKALGVAVDQPAATAFDVKQQLALVANGMQSLVDEKATFEKIAKSALLNTPNAFYIGRGLDYAVSLETALKLKEISYVQAEGFASGELKHGTIALIEKDTPVIGIITQKNTAGLTRSNLQEVAARGAKTVTIVTDSLAKDGDTVILPTVDERLTALLSVVPGQLLAYYTSLNKGLDVDKPRNLAKSVTVE |  |  | immune cross-react with anti-oxytocin antibodies |
| GMP synthase (protein, listed as Lactobacillus plantarum, GMP synthase, protein expressed by Lactobacillus plantarum) MAKTDTASFDSILVLDFGSQYNQLITRRIRDFGVYSELLPNTITAEEIKARHPKGIIFSGGPNSVYDDGAFRVDPEIFKLGLPILGICYGMQLMTYTLAGGKVESADNREYGKANIDVTSDSATLFKDTPAEQSVWMSHGDLVTQAPDGFDVVATSKNCPIAAIQDVDRKLYGIQFHAEVRNTDYGNDILRHFAFDVCQAEANWSMDDFIDMQIEKIRAEVGDKKVLLGLSGGVDSSVVGVLLHKAIGTQLTSIFVDHGLLRKGEADQVMASLEGKFGLNIIKVDAKDRFLSKLAGVSDPERKRKIIGNEFIQVFDEEATKLNGMEFLAQGTLYTDVIESGTSTAQTIKSHHNVGGLPEDMQFKLIEPLRTLFKDEARELGEKLGMPSDLVWRQPFPGPGLGIRVIGEITEDKLEIVRDSDFILRDEIKKAGLDREIWQYFTVLPGIKSVGVMGDGRTYDYTVGIRAVTSIDGMTADFARIPWDVLQKISVRIVNEVDHVNRIVYDVTSKPPSTIEWE |  |  | immune cross-react with anti-oxytocin antibodies |
| Phosphoglycerate kinase (protein, listed as Bifidobacterium dentium, Phosphoglycerate kinase, protein expressed by Bifidobacterium dentium) MKTLKDLGDLKGKRVLVRADFNVPLDGTTITDDGRIKAALPTIKALREEGAKVILMAHLGRPKGKVVPELSLAPVATRLGELLGVEVPLASDTYGEDAQAKVAAMNDGDVVLLQNVRFNPEETSKDPEERAAYAKKIAALGEAFVSDGFGVVHRAQGSNYDVAADLPAAAGLLVEKEVKALSRATVDPERPLTVVLGGSKVSDKLGVIENLLDKADRLVIGGGMVYTFLKAKGLEVGTSLLEEDQVETVKGYIERAEKNGVELVLPTDIVVNPVFPKSDEDIAPEVVAADAIPADKMGLDIGPDSQKLFHDKIVDSKTVVWNGPMGVFEVPAFAAGTEAVAQGLVDATAAGAFTIVGGGDSASAVRNLGFPEDGFSHISTGGGASLEFLEGKELPGLKVLD |  |  | immune cross-react with anti-oxytocin antibodies |
| Phosphoketolase (protein, listed as Bifidobacterium dentium, phosphoketolase, protein expressed by Bifidobacterium dentium) MTSPVIGTPWKKLNAPVSEEAIEGVDKYWRAANYLSIGQIYLRSNPLMKEPFTREDVKHRLVGHWGTTPGLNFLIGHINRLIADHQQNTVIIMGPGHGGPAGTAQSYLDGTYTEYFPNITKDEAGLQKFFRQFSYPGGIPSHYAPETPGSIHEGGELGYALSHAYGAVMNNPSLFVPAIVGDGEAETGPLATGWQSNKLVNPRTDGIVLPILHLNGYKIANPTILSRISDEELHEFFHGMGYEPYEFVAGFDNEDHLSIHRRFAELFETVFDEICDIKAAAQTDDMTRPFYPMIIFRTPKGWTCPKFIDGKKTEGSWRSHQVPLASARDTEAHFEVLKNWLESYKPEELFDANGAVKPEVTAFMPTGELRIGENPNANGGRIREELNLPALEDYEVKEVAEYGHGWGQLEATRRLGVYTRDIIKNNPDSFRIFGPDETASNRLQAAYDVTNKQWDAGYLSAQVDEHMAVTGQVTEQLSEHQMEGFLEAYLLTGRHGIWSSYESFVHVIDSMLNQHAKWLEATVREIPWRKPISSMNLLVSSHVWRQDHNGFSHQDPGVTSVLLNKCFNNDHVIGIYFPVDSNMLLAVAEKCYKSTDMINAIIAGKQPAATWLTLDEARAELEKGAAEWEWASTAKSNDEAQIVLASAGDVPAQEIMAAADKLDAMGIKFKVVNVVDLVKLQSTKENDEAISDADFADLFTEDKPVLFAYHSYARDVRGLIYDRPNHDNFNVHGYEEQGSTTTPYDMVRVNNIDRYELVAEALRMIDADKYADKIDELEAFRKEAFQFAVDNGYDHPDYTDWVYSGVNTNKQGAVSATAATAGDNE |  |  | immune cross-react with anti-oxytocin antibodies |
